Assays:
[1] = target: human ANG2 protein (623-AN-025/CF, R&D) (human) (UniProt O15123); experiment: cell-based or functional assay
[2] = target: human ANG2 protein (623-AN-025/CF, R&D) (human) (UniProt O15123); experiment: flow cytometry, inhibition of human ANG2 (10 µg/mL) binding to HUVEC cells

human ANG2 protein (623-AN-025/CF, R&D) (human), sequence (O15123 19-496 limits assumed): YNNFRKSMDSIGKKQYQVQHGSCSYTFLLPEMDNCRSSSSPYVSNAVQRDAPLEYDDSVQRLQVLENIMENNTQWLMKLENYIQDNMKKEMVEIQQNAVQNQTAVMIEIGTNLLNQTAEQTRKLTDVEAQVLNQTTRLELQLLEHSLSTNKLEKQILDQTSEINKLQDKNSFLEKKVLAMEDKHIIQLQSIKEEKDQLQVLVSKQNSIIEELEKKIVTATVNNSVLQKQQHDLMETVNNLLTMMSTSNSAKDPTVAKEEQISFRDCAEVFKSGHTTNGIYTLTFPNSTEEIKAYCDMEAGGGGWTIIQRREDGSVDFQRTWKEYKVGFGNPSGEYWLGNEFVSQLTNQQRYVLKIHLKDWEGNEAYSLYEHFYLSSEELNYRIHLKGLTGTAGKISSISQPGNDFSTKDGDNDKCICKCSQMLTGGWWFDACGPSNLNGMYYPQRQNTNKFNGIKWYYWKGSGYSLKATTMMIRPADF

IC50 of inhibition of AKT phosphorylation of human ANG2-dependent HUVEC cells [1]: 27.3 nM
IC50 [2]: 53.9 nM
Substance: RG7716 (ATAD00534, Atagenix) (bispecific antibody)

Reference: US20240425575A1
